The assay concerns the target Rhizobium radiobacter MDC 8606 N-carbamoyl-β-alanine amidohydrolase (Rhizobium radiobacter MDC 8606). Briefly: SEC; Superdex S200 16/60, 50 mM Tris-HCl pH 8.0, 150 mM NaCl; calibrated column; single major peak at 74.4 mL, apparent molecular weight 90 kDa. In general terms: Size exclusion chromatography separates by hydrodynamic size, large species first.

As usually defined, the stoichiometry N is a count of units in the complex or per binding partner.

“Rhizobium radiobacter MDC 8606 N-carbamoyl-β-alanine amidohydrolase (enzyme)”: the stoichiometry N was 2.
